First the molecules themselves.
B1: Humanized 31C8-1.1 (antibody, human IgG2, kappa, V domains shown)
VH: EVQLVQSGAEVKKPGATVKISCKASGYIFIDSEMHWVQQAPGKGLEWMGAIDPETGDTVYAEKFQGRVTITADKSSSTAYMELSSLRSEDTAVYYCTGSTTDYYFAYWGQGTLVTVSS
VL: DIQMTQSPSSLSASVGDRVTITCRSSKSLLHSNGIIYLYWYQQKPGKAPKLLIYQLSNLASGVPSRFSSSGSGTDFTLTISSLQPEDFATYYCAQNLELPFTFGQGTKVEIKR
notes: also called hz31C8-1.1; hz31C81-1.1
B2: Humanized 31C8-1.2 (antibody, human IgG2, kappa, V domains shown)
VH: B1 VH with E1Q, E10K, E62K, Q65K
VL: B1 VL
notes: also called hz31C8-1.2; hz31C81-1.2
B3: GSK3772847 (antibody STLM208 in CN104411333, prepared in-house) (antibody, human IgG2, kappa, V domains shown)
VH: EVQLLESGGGLVQPGGSLRLSCAASGFTFSIYDMIWVRQAPGKGLEWVSSIRGEGGGTYYADSVKGRFTISRDNSKNTLYLQMNSLRAEDTAVYYCARDPWSTEGSFFVLDYWGQGTLVTVSS
VL: EIVLTQSPATLSLSPGERATLSCRASQSVDDDLAWYQQKPGQAPRLLIYDASNRATGIPARFSGSGSGTDFTLTISSLEPEDFAVYYCQQYITAPLTFGQGTKVEIKR
notes: Control anti-ST2 antibody
B4: Chimeric 31C8 (antibody, human IgG2, kappa, V domains shown)
VH: QVQLQQSGPELVRPGASVTLSCKASGYIFIDSEMHWVKQTPVHGLEWIGAIDPETGDTVYNQKFKGKATLTADKSSSTASMELSSLTSEDSAVYYCTGSTTDYYFAYWGQGTTLTVSS
VL: DIVMTQAAFSNPVTLGTSASISCRSSKSLLHSNGIIYLYWYLQKPGQSPQLLIYQMSNLASGVPDRFSSSGSGTDFTLRISRVEAEDVGVYYCAQNLELPFTFGSGTKLEIKR
notes: also called xi31C8
B5: RG6149 (antibody Ab2 in CN104334582, prepared in-house) (antibody, human IgG2, kappa, V domains shown)
VH: EVQLVQSGAEVKKPGESLKISCKGSGYSFTNYWIGWVRQMPGKGLEWMGIIYPGNSDTRFSPSFQGQVTISADKSITTAYLQWSSLKASDTAMYYCARHGTSSDYYGLDVWGQGTTVTVSS
VL: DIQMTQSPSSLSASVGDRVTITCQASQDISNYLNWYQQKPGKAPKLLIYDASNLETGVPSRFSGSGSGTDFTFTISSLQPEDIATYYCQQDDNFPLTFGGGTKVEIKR
notes: Control anti-ST2 antibody

Numbering of substitutions follows the chain as printed.

One assay addresses T1, recombinant protein containing hST2 extracellular domain with mouse antibody heavy chain Fc tag (hST2-ECD-mFc) (human).
T1 construct: Used for SPR and for ELISA of chimeric and humanized antibodies; also called human ST2 antigen
T1 chain: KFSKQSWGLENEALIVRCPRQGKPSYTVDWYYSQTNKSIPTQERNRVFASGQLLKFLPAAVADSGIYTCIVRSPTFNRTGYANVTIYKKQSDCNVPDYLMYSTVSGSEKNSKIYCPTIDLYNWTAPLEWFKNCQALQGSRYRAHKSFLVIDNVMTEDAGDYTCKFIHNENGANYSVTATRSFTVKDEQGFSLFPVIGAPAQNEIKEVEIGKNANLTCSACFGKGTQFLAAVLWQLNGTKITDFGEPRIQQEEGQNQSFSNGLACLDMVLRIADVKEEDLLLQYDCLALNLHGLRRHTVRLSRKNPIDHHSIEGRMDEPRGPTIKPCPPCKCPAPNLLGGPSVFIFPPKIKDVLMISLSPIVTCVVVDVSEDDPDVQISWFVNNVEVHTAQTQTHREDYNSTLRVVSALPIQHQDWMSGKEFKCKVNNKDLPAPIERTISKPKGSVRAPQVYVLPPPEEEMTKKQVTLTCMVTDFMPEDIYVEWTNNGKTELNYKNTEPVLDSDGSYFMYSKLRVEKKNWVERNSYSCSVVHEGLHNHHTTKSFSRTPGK
Nature of the assay: ELISA, plate coated with hST2-ECD-mFc, antibody heated at 72 °C for 5 min. As to the method:
(§1) The anti-ST2 antibodies were diluted with PBS buffer to a concentration of 1.5 mg/mL. After being treated at 72° C. for 5 min, the samples were assayed by ELISA for their binding activity for an antigen The ELISA procedure is as follows: A 96-well plate was coated with 2 µg/mL hST2-ECD-mFc as the antigen at 100 µL/well and incubated at 4° C. overnight. After the antigen not adsorbed was well washed off, the non-specific binding sites were blocked with a blocking buffer (PBST containing 1% bovine serum albumin). After the plate was washed three times with a washing buffer (PBST, PBS containing 0.05% (v/v) Tween 20), the anti-ST2 antibodies (serially diluted 3-fold from an initial concentration of 1.5 µg/mL to 8 concentrations) were added at 100 µL/well, and the plate was incubated at 37° C. for 1 h. […] After the plate was incubated at room temperature for 5 min, a stop solution (2 N H₂SO₄) was added to stop the reactions. The signals were read at 450 nm using a plate reader (PE, Envision). The data were analyzed using GraphPad Prism5, and the EC₅₀ values were calculated.
Usually EC50 stands for the concentration giving half of the maximal effect. B1: the concentration for a half-maximal effect (EC50) was found to be 0.0968 nM.
Same read-out and setting: then B2, with 0.11 nM; and B3, with 0.188 nM; and B4, with 0.0863 nM.

The next assay concerns the target T2, IL1R1/CD121a (Sino biological, 10126-H08H) (UniProt P14778 18-332).
T2 construct: Bought protein
T2 sequence (looked up): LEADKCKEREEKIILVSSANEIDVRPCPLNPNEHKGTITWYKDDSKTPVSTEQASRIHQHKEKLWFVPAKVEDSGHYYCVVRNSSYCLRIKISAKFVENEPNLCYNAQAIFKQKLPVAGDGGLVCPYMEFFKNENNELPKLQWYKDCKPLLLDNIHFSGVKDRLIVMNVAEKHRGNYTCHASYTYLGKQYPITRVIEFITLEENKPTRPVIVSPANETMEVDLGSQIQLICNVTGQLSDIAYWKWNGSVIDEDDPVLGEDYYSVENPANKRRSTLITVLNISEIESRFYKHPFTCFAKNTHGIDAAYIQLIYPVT
Nature of the assay: ELISA, plate coated with 2 µg/mL receptor. As to the method: as §1
ST2 belongs to the IL1R receptor family. The cross-reactivity of the anti-ST2 antibodies with the IL1R family receptors was determined by ELISA. The IL1R family receptors include IL1R⅟CD121a (Sino biological, 10126-H08H), IL1R2/CD121b (Sino biological, 10111-H08H), IL1R3/IL1RAP (Sino biological, 10121-H08H), IL1R7/IL-18RAcP (Sino biological, 10176-H08H), IL1R8/IL1RAPL1 (Sino biological, 10177-H08H), and IL1R9/IL1RAPL2 (Sino biological, 10156-H08H). ELISA assays were performed using the proteins described above as antigens (2 µg/mL). See Example 13 for the specific ELISA procedure. No binding means that the antibody remains unbound to the antigen when at the highest concentration.
In general terms: In an ELISA, binding on a coated surface is turned into a signal by an enzyme label.
Consider B5, for which the binding result was “no binding”.
Consider B1, for which the binding result is “no binding”.
Regarding B2, the binding result is reported as “no binding”.
Still for that read-out and setting: then B3, with “no binding”; and B4, with “no binding”.

The next assay has as its target T3, cynomolgus monkey ST2 antigen (Cyno-ST2-his, Sino biological, 90915-C08H) (cynomolgus monkey, UniProt Q01638 19-328 (human entry)).
T3 construct: Bought protein; not shown: his tag
T3 chain: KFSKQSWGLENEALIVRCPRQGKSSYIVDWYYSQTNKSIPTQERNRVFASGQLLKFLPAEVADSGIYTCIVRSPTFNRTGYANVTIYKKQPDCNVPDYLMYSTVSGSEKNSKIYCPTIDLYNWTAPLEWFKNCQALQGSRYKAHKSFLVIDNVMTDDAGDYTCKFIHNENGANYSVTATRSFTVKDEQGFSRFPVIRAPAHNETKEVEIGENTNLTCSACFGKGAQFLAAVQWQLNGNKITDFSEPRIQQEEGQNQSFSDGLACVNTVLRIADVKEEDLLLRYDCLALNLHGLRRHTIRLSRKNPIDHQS
Nature of the assay: SPR (Biacore T200), Cyno-ST2-his captured by anti-his antibody on CM5, antibody as analyte, 1:1 model. As to the method:
The reaction signals were detected in real time using a Biacore instrument (Cytiva, BiacoreT200), and then an association-dissociation curve was obtained. After the completion of dissociation in each cycle, the biochip was regenerated with a regeneration solution for the next capture; the procedure was repeated until the affinity of the different antibodies for ST2 was determined. The acquired data were finally analyzed using the GE BIAevaluation software with a 1:1 (Langmuir) binding model to determine the association rate constants ka (kon) and the dissociation rate constants kd (koff), and the dissociation constants KD were given by KD = kd/ka. The determined affinity of the anti-ST2 antibody for human ST2 antigen (hST2-ECD-mFc), cynomolgus monkey ST2 antigen (Cyno-ST2-his, Sino biological, 90915-C08H) and the determined affinity of the anti-ST2 chimeric antibodies for ST2 were shown in Table 5.
The humanized antibodies hz31C81-1.1 (the amino acid sequence of the heavy chain set forth in SEQ ID NO: 75 and the amino acid sequence of the light chain set forth in SEQ ID NO: 81) and hz31C8-1.2 (the amino acid sequence of the heavy chain set forth in SEQ ID NO: 77 and the amino acid sequence of the light chain set forth in SEQ ID NO: 81) were subjected to affinity, binding, blocking and cell function analyses using the methods described in Example 4, Example 5, Example 6, Example 7, Example 8, Example 9 and Example 10. In the present disclosure, “hz” and “xi” denote humanized antibodies and chimeric antibodies, respectively; for example, “hz31C81-1.1” and “hz31C81-1.2” represent humanized 31C81-1.1 and 31C81-1.2 antibodies, and “xi31C8” represents a chimeric 31C8 antibody.
(SPR reads the build-up and loss of mass on a sensor chip optically.)
A word on the Kd: it is the constant that tells how readily two partners part at equilibrium. The molecule B5 gave a Kd of 0.069 nM.
Still for that read-out and setting: then B1, with 2.47 nM; and B2, with 5.27 nM.
In turn, B3 gave a Kd of 0.0923 nM.
On the same count and under the same terms, next, B4: 1.62 nM.

The values above are taken from patent publication US20230272086A1 (CHIA TAI TIANQING PHARMACEUTICAL GROUP, published 2023).
